Residue numbers refer to the chain shown, from its start.

The values that follow come from patent publication US20060073508A1.

The target of assay [1] is Gi/Go (endogenous G proteins of the CHO cells). Kind of assay: cell-based or functional assay.
Assay [2] addresses Gi (endogenous G protein of the CHO cells). Nature of the assay: cell-based or functional assay.

B1: Del322-325 human alpha-2C adrenergic receptor, P18825 1-462 (receptor)
chain: MASPALAAALAVAAAAGPNASGAGERGSGGVANASGASWGPPRGQYSAGAVAGLAAVVGFLIVFTVVGNVLVVIAVLTSRALRAPQNLFLVSLASADILVATLVMPFSLANELMAYWYFGQVWCGVYLALDVLFCTSSIVHLCAISLDRYWSVTQAVEYNLKRTPRRVKATIVAVWLISAVISFPPLVSLYRQPDGAAYPQCGLNDETWYILSSCIGSFFAPCLIMGLVYARIYRVAKRRTRTLSEKRAPVGPDGASPTTENGLGAAAGAGENGHCAPPPADVEPDESSAAAERRRRRGALRRGGRRRAGAEGGAGGADGQGAAESGALTASRSPGPGGRLSRASSRSVEFFLSRRRRARSSVCRRKVAQAREKRFTFVLAVVMGVFVLCWFPFFFIYSLYGICREACQVPGPLFKFFFWIGYCNSSLNPVIYTVFNQDFRPSFKHILFRRRRRGFRQ
Regarding B1, in assay [1], the high affinity dissociation constant KH of epinephrine (competition with [3H]yohimbine, no GTP) came to 7.3 nM and the percentage of receptors in the high-affinity state (% RH) was determined as 31%. The inhibition of adenylyl cyclase (epinephrine) in assay [2] was 10 % inhibition.

B2: polymorphic Lys251 human alpha-2A adrenergic receptor, P08913 16-465 (receptor)
chain: MGSLQPDAGNASWNGTEAPGGGARATPYSLQVTLTLVCLAGLLMLLTVFGNVLVIIAVFTSRALKAPQNLFLVSLASADILVATLVIPFSLANEVMGYWYFGKAWCEIYLALDVLFCTSSIVHLCAISLDRYWSITQAIEYNLKRTPRRIKAIIITVWVISAVISFPPLISIEKKGGGGGPQPAEPRCEINDQKWYVISSCIGSFFAPCLIMILVYVRIYQIAKRRTRVPPSRRGPDAVAAPPGGTERRPKGLGPERSAGPGGAEAEPLPTQLNGAPGEPAPAGPRDTDALDLEESSSSDHAERPPGPRRPERGPRGKGKARASQVKPGDSLPRRGPGATGIGTPAAGPGEERVGAAKASRWRGRQNREKRFTFVLAVVIGVFVVCWFPFFFTYTLTAVGCSVPRTLFKFFFWFGYCNSSLNPVIYTIFNHDFRRAFKKILCRGDRKRIV
In assay [2], B2 came in with an inhibition of adenylyl cyclase of 60 % inhibition and a stimulation of MAP kinase (fold increase over basal) of 57.

B3: wild-type Asn251 human alpha-2A adrenergic receptor, P08913 16-465 (receptor)
chain: B2 chain with K251N
On to B3, for which, in assay [2], the inhibition of adenylyl cyclase is 46 % inhibition and the stimulation of MAP kinase (fold increase over basal) amounted to 15.

B4: wild-type human alpha-2C adrenergic receptor, P18825 1-462 (receptor)
chain: MASPALAAALAVAAAAGPNASGAGERGSGGVANASGASWGPPRGQYSAGAVAGLAAVVGFLIVFTVVGNVLVVIAVLTSRALRAPQNLFLVSLASADILVATLVMPFSLANELMAYWYFGQVWCGVYLALDVLFCTSSIVHLCAISLDRYWSVTQAVEYNLKRTPRRVKATIVAVWLISAVISFPPLVSLYRQPDGAAYPQCGLNDETWYILSSCIGSFFAPCLIMGLVYARIYRVAKRRTRTLSEKRAPVGPDGASPTTENGLGAAAGAGENGHCAPPPADVEPDESSAAAERRRRRGALRRGGRRRAGAEGGAGGADGQGAGPGAAESGALTASRSPGPGGRLSRASSRSVEFFLSRRRRARSSVCRRKVAQAREKRFTFVLAVVMGVFVLCWFPFFFIYSLYGICREACQVPGPLFKFFFWIGYCNSSLNPVIYTVFNQDFRPSFKHILFRRRRRGFRQ
In assay [1], B4 returned a high affinity dissociation constant KH of epinephrine (competition with [3H]yohimbine, no GTP) of 3.7 nM and a percentage of receptors in the high-affinity state (% RH) of 42%. In addition, in assay [2], the inhibition of adenylyl cyclase (epinephrine) is 73 % inhibition.
